Assay: soluble on expression in E. coli; label from the status in PepcDB or PDB records

Sequence | soluble on expression in E. coli
MSLKMTNNTVLITGGSAGIGLELAKRLLELGNEVIICGRSEARLAEAKQQLPNIHTKQCDVADRSQREALYEWALKEYPNLNVLVNNAGIQKEIDFKKGTEELFVDGDEIELNFQAPVHLSALFTPHLMKQPEAAIVQVTSGLAFNPLAVYPVYCATKAALHSFSLTLRHHVRDTSVEVIEMAPPMVDTGLNQKSRDKQGLTYRGISSEEYVQYFLDGLKEGKQEITNERVEGLRDATRADYDRLFEQMNTQEGHHHHHH | soluble
MSLKNNIYGNVPCFLNSKNLNQTNTLDTDVIVYGAPFEGESTWGDYTGVELGPKQIRVCSARYSQYLPELNHIDISEHLTMGDVGDVPFVAHDNKQSYDNISDFAKKLWDSGKFLVGFGGEHGVTYPILKALTETGKKVGIIHLDAHYDNMPDYEGEPYARNTPFMRLYETDGIRNESIIHTGIHGPRNKPETGRFAQEAGAVTLTINDIRAAKDLKTYAHEIYAQASKDVDVVYLTICSDVLDFAFNPGGPVDGNGLSSYELLTMIHEFGKLGLGGMDYVEVYPMMDANQNSAHFVSTAVLYVLAGHVAYLNQTEGHHHHHH | soluble
MSLKNTPPGFPSHSSATLAFALAIAAGGAQAAGFVEDAKGTLTLRNFFINRDFKGDNATRSKAEEWTQNFLLDLKSGYTEGPLGLGLDVLGLYSVKLDGGKGTGGTQLLPLDHDGKPADRFGRLAVAGKLKLSETELRAGEWALVLPILRSDDGRSLPQTFRGSMLTSKEIENLTLYAGHITGNSPRDDGSMEEMTLFGTSPYTSDRTSDDFDFGGLEYSFNGKRTLVGVWYARLKDIYKQRYIQLQHSQPLGGDWTLGANIGYFDGEDDGEALEGHLDNKALSGLFSLRTGAHTFYLGLQRISGDSKWLRVNGTSGGTLANDSYNSSYDNARERSWQLRYDYNFAALGMPGLTFMTRYISGKNIHVGAVDDGEEWGRESEVAYVVQSGAAKNLTLRWRNTTMRRDYGSDNQFNEQRLIVQYPLSLFEGHHHHHH | soluble
MSLKQIIDNVEVYILTGPKEKRPHWVSHFIVPTANELLVKIKTKQGLEGFGIATNYSDINPVIEVFKTDFLDNFIGMDATCPEVIYEKIFNLTSQKLSFEKKWGKEPLIRISAAIDIACWDLIGKASGFPLYKLFGGYRDKVPCYVTCAYYRDGKDNKELKDEIEMLVGQGHQGFKGKVGGLSLREDLERMNIIRDVIGDEKSLMIDVNRAWDLKTASEAVNLLKPINPFWLEEPVRWADDRRELKLLSQKTEIPISGGESELTIYGCRSMLEEQAIQILQFDCTMFGGFTAGKKLSALCEVNHVDIAPHHDCFIHAHIVAGSPSGLIVESFTDPERDPLQAELFTNPPKIENGWLYLNEEPGLGLNLSNDALAKFGNKILEGHHHHHH | soluble
MSLKQKSSGKSVIITGVTQGLGRAMVDRFHELGWNIYGCGRSKDKIEELKKYYGNTHVFQIIDVSDSQQVSDWANYILHRNRAPDLLINNASIVNKNAPLWKVTAEEFENVMNVNVNGVVNVIRAFVPAMVARKAGMIINMSSSWGREGEAELAPYCASKFAIEGITKSLALELPYSMAVVALDPGGSISTPMLYSCAPQYVNESPTPEMWSQHAIPYILKITIDKNGASLTCPECTEGHHHHHH | soluble
MSLKQLDMTPQPDLSQKTGTGPVLTRLPVWRPALPPCNHACPAGENIQAWLSLAEAGRFEAAWQTLIEENPLPAIHGRVCYHPCESACNRAQVDDAVSIHAIERFLGDEALARGWQPAPPAPASGKKVLVIGAGPSGLSCAWHLNRLGHQVEIREAGPLAGGMLRFGIPAYRLPRDVLDREVARIVAAGVTLTLNHKVEDVLRERDEGGFDAVFMAIGAHLAKRVDIPAREAGKILDAVSFLEQASLAEEQGLPPPKLGRRVAIYGGGNTAMDAARTARRLGVEEAMIIYRRDREHMPAHAFEADEAEEEGIKINWLRSIRQLDNTNIEVEVMALDAEGKPVPTGKFETLEADSLILALGQEVDLSVLESIPGVRVNKEGVVQVGENLMTDVPGLFAGGDMVPSERTVTIATGHGKKAARHMDAWLRGRHYQKMVSYPLVGPEQLQLWFQTHAPASSQPVKPAWARDDFGEIIGGLDETAARYEAARCYSCGNCFECDGCYGSCPEQAIEKLGPGKGYQVDATRCTGCGACHDQCPCHAIELRQPEESEGHHHHHH | soluble
MSLKQYSVKELTKLYKFLVIKANETRKLTLQDKNGIVKSNTDYNGVINRAQLGYDNILDILPSVSGSYSKPKYIISSNLMCYTGITGIYFPFTGEANVNIAIPDLYIPCTVEHEMAHQRGFASEDEANFIAYLTSIKHPNIDFNYSGYILALNYTASALSKVDYNAYVDISAGISDSVRRDLKNESEFWQKYEGKINEISNEFNNSYLKANGVTEGTQSYGKMVDLLLTYYELYPYNEGHHHHHH | soluble
MSLKRQLGKDVVQAARERIHILFDEFEHIYVSFSGGKDSGVLLHLVIEEARKRNRLPVDVLIVDLEAQYQHTIHFVERMVNKKEVNAFWVCLPLSLRNSVSQFQPKWICWDPDKKEDWIRALPLHASVINEEEYFSFYSFGMEFETFVSAFGEWYSEKKQCPCACLVAIRADESLNRYKTIKNQRKKRLKQYGWTTKASDVFYKAYLIYDWHVTDIWIANGRFNWDYNHVYDLMHKAGLSLAQQRLCQPFGDDQRKGLWLYQILEPQTWQKLVVRVEGCNFGARYSKKQGHILGYYKFDLPEGYTYRSYSKYLLNSMPPHLADHYRKRLFKFLNWWRKNGKEQGILSIPDFADKKLEAKKKVPSWRRICKVLIKNDYWCRGLSFGQSKKLTEHYIDLYEGYFRKEGHHHHHH | soluble
MSLKSADSATQQYLKEKHEEYLSLQHGLQRREETLLATVNQIVVNQHAFLLHQAALAPLLLRDVAKALQVNESTVSRTIKGKHLQTDLGIFAFKDFFSKRTQAVSSSAYHSVDQLKFTMMQLIQSENKMCPASDNLLVKWLYEKGFKVARRTVTKYRNELGLPAASARKSREGHHHHHH | soluble
MSLKSESKGGSNALVVSTFGLSEDIVKKDIIAPFEKENEAKVTLEVGNSADRFTKLKNNPNAGIDVIELAQANAAQGGKDGLFEKITEKEVPNLSQLTPGAKEVFESGAGVPIAVNSIGIVYNKEKLGKEIKNWDDLWSADLKGKISVPDVATTAGPLMLYVASEHAGQDITKDNGKAAFEAMKELKPNVVKTYSKSSDLANMFQSGEIEAAVVADFAVDIIQGAAENVTYIVPESGTYANYNTVNIPKKAQNKETAFKFVNARISEESQKAKAISLNEGPTNQQVTLSEKEAKNKTYGAIAERAKTVDFNFINSQLADWIDQWNRTMNQEGHHHHHH | soluble
MSLKTGRFDQAQADAFAERLLSVLNDAALTLMISIGHRTGLFDVMDKLDFASSEVIAEAAGCNERYVREWLNALVVGGIVDYDAHTKAYQLPAEHASFLTRKSSPQNMAVVAQFIPVLAYVENGIVDAFKHGGGVPYEAYHRFHEVMAEESGQTILSSLTDKILPMVHGLVDKLNQGIQVLDIGCGYGRALILMAKTYPQSQFTGYDLCDETIAHAVHSAKKNKIQNIHFEKMDLSVWDEQEKYDLITSFDVIHDQAKPAQVLSNVFKALKPHGIFLMQDIKTSSDVAGNVHHPLGALIYTISCMHCMTVSLSQNGLGLGAAWGEELAEKMLVEAGFGKIEKHYLEHDIMNTYYVMRKEGHHHHHH | soluble
MSLKVFVTGATGFIGASIARELLKDGCHVRVLARPGSDRRNLDGLDVEVCEGDLCSPESLDRGVKGCEVLYHAAADYRLWTRNPAAMYAANVEGTRHVLDAALRHGVSRVVYTSSVGTLGNPGDGTPGTEATPVTFADMVGDYKKSKFLAEREAETFLARGLPLVIVNPSTPVGPHDVKPTPTGKIIVDFLNRAMPAYLDTGLNIIDVEDCAQGHILAAQHGRIGEKYILGHENLTLRQIFSLLETVTGLAAPKVRLPYLPILAAAYANEALSRITGREPLIPLAGVQMARKFMYFDSSKAVKELGLPQRPAVEALGRAVEWFRANGYVREGHHHHHH | soluble
MSLKVLAAMSGGVDSSVAAARMVDAGHEVVGVHMALSTAPGTLRTGSRGCCSKEDAADARRVADVLGIPFYVWDFAEKFKEDVINDFVSSYARGETPNPCVRCNQQIKFAALSARAVALGFDTVATGHYARLSGGRLRRAVDRDKDQSYVLAVLTAQQLRHAAFPIGDTPKRQIRAEAARRGLAVANKPDSHDICFIPSGNTKAFLGERIGVRRGVVVDADGVVLASHDGVHGFTIGQRRGLGIAGPGPNGRPRYVTAIDADTATVHVGDVTDLDVQTLTGRAPVFTAGAAPSGPVDCVVQVRAHGETVSAVAELIGDALFVQLHAPLRGVARGQTLVLYRPDPAGDEVLGSATIAGASGLSTGGNEGHHHHHH | soluble
MSLKVLIKTDLVLGAPKTLRDVYIGIDEGQIKVISKEKPEDYDYAEYVIGGKNRVVAPGFVTTHSFLYLYPFRYRVFSGKANAFQLMSTLTPNDIYYFSLMGAYHLLKTGVTTVVTSGPNLDMIARAISEVGLRPVLAVGVDCPDSKEDWEREFTTLYNRWSSKNENRVILRLCSNEYSKEVFELSQQYDFPVLLERFVSLENISGNPINVIGLGGGARKDLDIIKQKGFHLASTPSYEVSQFPLSQYKPSISLDLSPTFDIRHEVSTSITRLILTPEEALNAMTIWGLLQLKYNDRGVLENGKVADLVIFEVKEPPTFPLDYESPYESIVFNLSTPETVLVSGEAILDGGVPLNIGIKHIEKAIERLEDIDKKVTRPARYMEKDEGHHHHHH | not soluble
MSLKVTMEFIANQLGITKNTVSLALRNMPGVSEKTRKEILRTAEKYGYIYKKSNSKNSKSNSRTGSICLMLSNDTKNSVGFFSFIQYGVESEGKRNGLNTILYCFDDNKEFQPPVCIRDGIVSGIITLGRISRKTVSSIISLNLPLVIVDDFFDDIKASYVLTDNLSGGYTATEYLIKSGHRSIGFFGDIFASPSFFDRYMGYLKAHVQYNLPVNSSFSIIDKNMAVLLHEGVDKVVDELKKIPQLPTAMFCCNDVEAIALYKAFSVMGISVPDDISIIGFDDIESSTSVSPELTTMHINKEAMGERAVKKLIEKMNGQESMDEKIVLPVTLIERQSVKREGHHHHHH | soluble
MSLLDFSAHALPYASQRSPVHARRGMVATSQPQAAQVGLEILRRGGNAIDAAIATAAALTVVEPTGCGIGGDAFALVWTRGRLHGLDASGRAPGLLDRERVRAAGHERMPLYGWTPVTVPGCPAAWGELSRRFGKLPFEQLLRPAIELARDGFPVSPVIARLWQSGLDKFRAALPQRPELRAWFDEFLIDGRAPRAGEVFRQPGQADTLDELARSQCESFYRGELARAIVGHAECSGGYLRAEDLAGYQAKWVEPISLNYRGYDVWEIPPSGQGLIALMTLNILKGFEFGERDCARTWHRQLEAMKLAYVDGLHYISQPQSMRVSVEELLHEDYAASRRALIGERALDPSPGQPRPGGTVYLACGDEEGNLVSFIQSNYHGFGSGVVVPGTGIALQNRGAEFSLDPDHVNCLEPGKQTFHTIIPGFLSKDGVPLGPFGVMGAYMQPQGHVQMVMNLVDFGLNPQAALDAPRWQWLGGLRVGIEHAAPRALAAELAQRGHQVEIAYDSTSYGRGQIVLRDPASGVLCGGTEPRTDSQIAVWEGHHHHHH | not soluble

From the DeepSol protein solubility set
